Test [1] has as its target T1, complement component 3 (C3) (UniProt P01024 23-1663). In words: cell-based or functional assay.
The target in test [2] is human serum albumin (HSA) (human, UniProt P02768 25-609). In words: SPR, HSA amine-coupled to chip, single cycle kinetics, 1:1 Langmuir fit. The procedure:
C3, VEGF, and HSA were placed onto Spots B, C, and D, respectively, across all 8 channels to test for the binding of the supplied analytes. Spot A was used as a reference spot. The conditioned biosensor chip was chemically activated with EDC/NHS. Ligands were then injected onto the activated surface to allow for immobilization. After immobilization, 1 M ethanolamine was injected to block any remaining reactive carboxyl groups in the carboxymethylated dextran surface.
(§1) In summary, ligands were immobilized under the following conditions: 25° C. on a Sierra Sensors HCA (CM5), Running Buffer of PBST (10 mM Phosphate Buffer pH 7.4, 150 mM NaCl, 0.05% Tween-20; pH 7.4), amine coupling Immobilization Buffer of 10 mM NaOAc pH 5.0, activation with EDC/NHS 7 minutes, immobilization for 2 minutes, and blocking with 1 M ethanolamine for 7 minutes.
(§2) An 8-point, 3-fold serial dilution assay was performed in duplicate for the Fab fusion proteins described in Example 8 starting at 100 nM. Sensorgrams were analyzed using Sierra Sensors Analyzer with a double reference to determine the interaction parameters ka, kd, and KD. The reference channel was first subtracted from the ligand channel as the first reference. The internal blank injections were set to closest blank after injection based on the method. The kd was calculated for the top concentration by fitting the off-rate part of the curve. The kd was then set to global constant for fitting rest of the curves. Rmax was fit locally for each individual curve since the number of available binding sites changed after each injection. Binding data was fit to a 1:1 Langmuir model.
(In general: In SPR one partner is held on a chip, and binding of the other changes the refractive index at the surface.)

Test [3] deals with T1, complement component 3 (C3). In words: SPR, single cycle kinetics, 1:1 Langmuir fit; text says C3 (Cat #A113c) was immobilised, the column's head prints 'Binding to C3b'. How it is done: C3 binding, VEGF binding, HSA binding, and equilibrium dissociation constant (KD) measurements were determined by Surface Plasmon Resonance (SPR) using the Sierra SPR-23 instrument. C3 protein was obtained from Complement Technology, Inc. (Cat #A113c). VEGF protein was obtained from Sino Biologicals, Inc. HSA protein was obtained from Sigma-Aldrich, Inc. (Cat #A3782). The Fab fusion proteins described in Example 8 were stored each at 1 mg/mL in PBST, pH 7.4.
as §1, §2

Test [4] shares this target. The test is described as follows: ITC.
For test [5] the target is unchanged. In words: cell-based or functional assay. The source holds these as a separate data set.
The target is the same in test [6]. In words: ITC, binder titrated into target. (In general: In ITC the heat of successive injections is recorded.)
The target is the same in test [7]. The test is described as follows: ITC, polypeptide titrated into C3; fit box in the lower panel.
Test [8] shares this target. In words: SPR, target amine-coupled to chip, single cycle kinetics, 1:1 Langmuir fit. How it is done: In summary, ligands were immobilized under the following conditions: 25° C. on a Sierra Sensors HCA (CM5), Running Buffer of PBST (10 mM Phosphate Buffer pH 7.4, 150 mM NaCl, 0.05% Tween-20; pH 7.4), amine coupling Immobilization Buffer of 10 mM NaOAc pH 4.0, activation with EDC/NHS 6 minutes, immobilization for 1 minute, and blocking with 1 M ethanolamine.
An 8-point, 3-fold serial dilution assay was performed in duplicate for the polypeptides described in Example 1 starting at either 20 nM, 50 nM, or 200 nM.
as §2, with “Sensorgrams” for “An 8-point, 3-fold serial dilution assay was performed in duplicate for the Fab fusion proteins described in Example 8 starting at 100 nM. Sensorgrams”, “Analyzer software version 3.1.33” for “Analyzer”

Test [9] shares this target. The test is described as follows: ITC; ITC, not SPR.
Test [10] shares this target. The test is described as follows: ITC, polypeptide titrated into C3; fit box in the lower panel. The source holds these as a separate data set.

Like-named read-outs stand apart in the source and are kept apart here.

T1 sequence (P01024 23-1663 limits assumed): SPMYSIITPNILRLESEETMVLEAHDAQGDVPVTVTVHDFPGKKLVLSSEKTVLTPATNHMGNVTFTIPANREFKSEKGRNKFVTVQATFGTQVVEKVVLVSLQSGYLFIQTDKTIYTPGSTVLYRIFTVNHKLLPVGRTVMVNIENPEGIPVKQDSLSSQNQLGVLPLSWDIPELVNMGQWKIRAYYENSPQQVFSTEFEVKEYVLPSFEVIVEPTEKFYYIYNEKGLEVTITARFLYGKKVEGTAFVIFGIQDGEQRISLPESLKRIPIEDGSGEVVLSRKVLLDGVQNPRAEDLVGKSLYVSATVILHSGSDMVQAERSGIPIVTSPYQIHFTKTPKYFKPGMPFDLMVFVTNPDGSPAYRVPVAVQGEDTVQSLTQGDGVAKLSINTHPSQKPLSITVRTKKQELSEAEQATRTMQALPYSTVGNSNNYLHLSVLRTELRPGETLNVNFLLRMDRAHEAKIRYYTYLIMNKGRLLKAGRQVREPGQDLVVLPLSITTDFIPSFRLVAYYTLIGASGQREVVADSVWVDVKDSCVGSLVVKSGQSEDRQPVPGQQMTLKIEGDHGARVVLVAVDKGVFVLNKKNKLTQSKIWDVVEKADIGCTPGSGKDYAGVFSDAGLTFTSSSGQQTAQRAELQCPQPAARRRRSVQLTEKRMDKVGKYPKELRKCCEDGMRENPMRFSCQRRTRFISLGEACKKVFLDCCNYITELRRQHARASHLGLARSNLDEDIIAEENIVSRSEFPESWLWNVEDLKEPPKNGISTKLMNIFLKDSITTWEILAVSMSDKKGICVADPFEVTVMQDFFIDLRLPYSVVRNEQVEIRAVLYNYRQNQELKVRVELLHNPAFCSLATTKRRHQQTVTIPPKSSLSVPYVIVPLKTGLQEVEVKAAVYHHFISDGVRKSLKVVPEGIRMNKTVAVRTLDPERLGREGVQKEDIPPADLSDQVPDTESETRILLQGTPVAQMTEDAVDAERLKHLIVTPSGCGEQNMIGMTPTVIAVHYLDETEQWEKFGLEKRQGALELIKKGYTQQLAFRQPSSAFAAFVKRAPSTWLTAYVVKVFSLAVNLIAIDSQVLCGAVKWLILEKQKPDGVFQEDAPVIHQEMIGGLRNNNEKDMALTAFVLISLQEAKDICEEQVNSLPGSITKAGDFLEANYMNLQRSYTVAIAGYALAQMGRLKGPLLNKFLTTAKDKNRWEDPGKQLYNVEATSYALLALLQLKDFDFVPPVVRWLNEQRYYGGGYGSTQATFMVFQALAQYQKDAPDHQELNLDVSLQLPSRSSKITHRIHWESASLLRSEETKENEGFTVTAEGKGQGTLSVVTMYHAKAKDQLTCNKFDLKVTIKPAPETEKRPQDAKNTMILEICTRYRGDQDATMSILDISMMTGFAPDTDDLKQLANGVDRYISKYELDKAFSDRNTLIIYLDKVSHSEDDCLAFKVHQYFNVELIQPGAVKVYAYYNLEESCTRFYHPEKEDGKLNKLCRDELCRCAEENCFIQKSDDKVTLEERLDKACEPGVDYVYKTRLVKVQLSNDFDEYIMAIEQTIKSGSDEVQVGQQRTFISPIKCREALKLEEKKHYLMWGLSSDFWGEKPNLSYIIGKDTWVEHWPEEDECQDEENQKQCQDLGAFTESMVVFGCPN
Sequence of human serum albumin (HSA) (P02768 25-609 limits assumed): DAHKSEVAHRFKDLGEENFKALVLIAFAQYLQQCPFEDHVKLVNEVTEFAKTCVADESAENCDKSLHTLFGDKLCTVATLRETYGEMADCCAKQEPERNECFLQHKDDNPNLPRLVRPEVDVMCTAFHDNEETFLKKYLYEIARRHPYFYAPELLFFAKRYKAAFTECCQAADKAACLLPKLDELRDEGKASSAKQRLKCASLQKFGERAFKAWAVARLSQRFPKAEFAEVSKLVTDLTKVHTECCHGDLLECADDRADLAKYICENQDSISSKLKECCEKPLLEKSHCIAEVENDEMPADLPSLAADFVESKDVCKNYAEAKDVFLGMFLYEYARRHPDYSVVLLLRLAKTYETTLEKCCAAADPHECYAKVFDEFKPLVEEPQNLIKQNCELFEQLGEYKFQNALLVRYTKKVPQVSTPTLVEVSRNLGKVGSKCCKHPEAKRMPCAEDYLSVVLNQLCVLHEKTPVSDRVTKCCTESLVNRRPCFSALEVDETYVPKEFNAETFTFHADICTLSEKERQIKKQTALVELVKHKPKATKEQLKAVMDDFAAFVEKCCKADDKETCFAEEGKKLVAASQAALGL

B1: Fab NF-J (Fab fusion protein comprising SEQ ID NO: 58 and SEQ ID NO: 62) (other)
heavy: EVQLVESGGGLVQPGGSLRLSCAASGYDFTHYGMNWVRQAPGKGLEWVGWINTYTGEPTYAADFKRRFTFSLDTSKSTAYLQMNSLRAEDTAVYYCAKYPYYYGTSHWYFDVWGQGTLVTVSSASTKGPSVFPLAPSSKSTSGGTAALGCLVKDYFPEPVTVSWNSGALTSGVHTFPAVLQSSGLYSLSSVVTVPSSSLGTQTYICNVNHKPSNTKVDKKVEPKSCDKTHLGSGGSGSAGSGSGGSVKVKFDATGEEKEVETSKISAVYRTGKDVLFSYDDQGKIGWGYVSEKDAPKELLDLLARAERE
light: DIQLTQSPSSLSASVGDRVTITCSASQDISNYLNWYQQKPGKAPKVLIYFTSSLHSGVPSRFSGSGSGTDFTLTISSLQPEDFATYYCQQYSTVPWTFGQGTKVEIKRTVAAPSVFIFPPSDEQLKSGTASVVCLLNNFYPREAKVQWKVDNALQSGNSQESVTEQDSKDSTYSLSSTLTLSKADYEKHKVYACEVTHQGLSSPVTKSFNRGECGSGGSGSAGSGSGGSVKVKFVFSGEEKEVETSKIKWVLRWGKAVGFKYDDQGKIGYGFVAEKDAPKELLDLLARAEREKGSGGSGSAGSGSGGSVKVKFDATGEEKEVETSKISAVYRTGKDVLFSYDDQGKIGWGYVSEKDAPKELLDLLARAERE
One may read the Kd as a measure of binding affinity in units of concentration. A higher Kd goes with weaker binding. Turning to B1, the “IC50 (nM) Alternative Pathway (Wieslab® assay)” value (from here on “IC50 (nM) Alternative Pathway”) in [1] was 121 nM. Further, the “IC50 (nM) Classical Pathway (Wieslab® assay)” value (“IC50 (nM) Classical Pathway” below) in test [1] came out at 48 nM. For the same molecule, the Kd is 16.9 nM in test [2] and 0.14 nM in [3].

B2: polypeptide comprising the amino acid sequence of SEQ ID NO: 33 (designed binder)
chain: MVKVKFAATGEEKEVETSKIANVYRVGKDVLFSYDDQGKIGWGYVSEKDAPKELLDLLARAEREK
For B2, binding in [4] was characterised by a dissociation constant (Kd) of 1.9 nM. In addition, in [5], the “IC50 (nM) Alternative (ELISA-based complement activation assay)” value was 447 nM and the “IC50 (nM) Classical (ELISA-based complement activation assay)” value was found to be 63 nM. In addition, in test [6], the “-TΔS” value was determined as 6.6 kcal/mol, the Kd worked out at 1.9 nM, the N was 0.94 and the ΔG is -11.9 kcal/mol. Moreover, the ΔH in test [6] was -18.5 kcal/mol. For the same molecule, the Ka in test [7] is 5.36e+08 M⁻¹. Moreover, the Kd in test [8] turned out to be 0.22 nM.

B3: polypeptide comprising the amino acid sequence of SEQ ID NO: 34 (designed binder)
chain: MVKVKFDATGEEKEVETSKISAVYRTGKDVLFSYDDQGKIGWGYVSEKDAPKELLDLLARAEREK
On to B3, for which, in test [4], the dissociation constant Kd is 1.3 nM. In addition, in test [5], the “IC50 (nM) Alternative (ELISA-based complement activation assay)” value is 286 nM and the “IC50 (nM) Classical (ELISA-based complement activation assay)” value is 79 nM. Also, in [6], the “-TΔS” value stood at 16.7 kcal/mol, binding was put at a Kd of 1.3 nM, the N amounted to 0.85 and the ΔG is -12.1 kcal/mol. Further, the ΔH in [6] was -28.8 kcal/mol. This molecule gave an equilibrium dissociation constant (Kd) in test [8] of 0.66 nM.

B4: Fab NF-G (Fab fusion protein comprising SEQ ID NO: 61 and SEQ ID NO: 60) (other)
heavy: EVQLVESGGGLVQPGGSLRLSCAASGYDFTHYGMNWVRQAPGKGLEWVGWINTYTGEPTYAADFKRRFTFSLDTSKSTAYLQMNSLRAEDTAVYYCAKYPYYYGTSHWYFDVWGQGTLVTVSSASTKGPSVFPLAPSSKSTSGGTAALGCLVKDYFPEPVTVSWNSGALTSGVHTFPAVLQSSGLYSLSSVVTVPSSSLGTQTYICNVNHKPSNTKVDKKVEPKSCDKTHLGSGGSGSAGSGSGGSVKVKFDATGEEKEVETSKISAVYRTGKDVLFSYDDQGKIGWGYVSEKDAPKELLDLLARAEREKGSGGSGSAGSGSGGSVKVKFVFSGEEKEVETSKIKWVLRWGKAVGFKYDDQGKIGYGFVAEKDAPKELLDLLARAERE
light: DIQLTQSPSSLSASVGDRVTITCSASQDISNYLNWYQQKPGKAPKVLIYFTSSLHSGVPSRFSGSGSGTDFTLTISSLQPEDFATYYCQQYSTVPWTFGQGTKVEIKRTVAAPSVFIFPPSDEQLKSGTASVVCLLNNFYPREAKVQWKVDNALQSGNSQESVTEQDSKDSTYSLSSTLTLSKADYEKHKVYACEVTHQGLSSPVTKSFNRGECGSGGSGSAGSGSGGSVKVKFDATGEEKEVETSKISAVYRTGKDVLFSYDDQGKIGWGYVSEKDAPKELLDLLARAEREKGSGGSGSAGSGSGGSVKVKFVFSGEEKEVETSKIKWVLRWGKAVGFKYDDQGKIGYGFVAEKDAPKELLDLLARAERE
Take B4: the Kd in test [2] turned out to be 16.9 nM; in [3], 0.21 nM.

B5: Fab NF-E (Fab fusion protein comprising SEQ ID NO: 59 and SEQ ID NO: 57) (other)
heavy: EVQLVESGGGLVQPGGSLRLSCAASGYDFTHYGMNWVRQAPGKGLEWVGWINTYTGEPTYAADFKRRFTFSLDTSKSTAYLQMNSLRAEDTAVYYCAKYPYYYGTSHWYFDVWGQGTLVTVSSASTKGPSVFPLAPSSKSTSGGTAALGCLVKDYFPEPVTVSWNSGALTSGVHTFPAVLQSSGLYSLSSVVTVPSSSLGTQTYICNVNHKPSNTKVDKKVEPKSCDKTHLGSGGSGSAGSGSGGSVKVKFVFSGEEKEVETSKIKWVLRWGKAVGFKYDDQGKIGYGFVAEKDAPKELLDLLARAERE
light: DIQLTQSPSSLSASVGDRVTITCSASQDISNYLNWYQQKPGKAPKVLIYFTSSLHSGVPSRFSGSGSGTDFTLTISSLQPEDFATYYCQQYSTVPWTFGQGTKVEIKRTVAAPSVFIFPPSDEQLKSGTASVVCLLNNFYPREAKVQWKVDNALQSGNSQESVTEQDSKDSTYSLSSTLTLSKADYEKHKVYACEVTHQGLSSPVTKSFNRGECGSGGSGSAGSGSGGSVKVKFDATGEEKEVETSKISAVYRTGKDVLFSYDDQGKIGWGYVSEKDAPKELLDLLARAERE
notes: Signal peptide cleaved off prior to secretion
Turning to B5, the “IC50 (nM) Alternative Pathway” value in test [1] was found to be 246 nM. In test [1], the “IC50 (nM) Classical Pathway” value was determined as 65 nM. Also, the Kd in test [2] was 3 nM; in [3], 1.31 nM.

B6: Fab NF-F (Fab fusion protein comprising SEQ ID NO: 63 and SEQ ID NO: 35) (other)
heavy: EVQLVESGGGLVQPGGSLRLSCAASGYDFTHYGMNWVRQAPGKGLEWVGWINTYTGEPTYAADFKRRFTFSLDTSKSTAYLQMNSLRAEDTAVYYCAKYPYYYGTSHWYFDVWGQGTLVTVSSASTKGPSVFPLAPSSKSTSGGTAALGCLVKDYFPEPVTVSWNSGALTSGVHTFPAVLQSSGLYSLSSVVTVPSSSLGTQTYICNVNHKPSNTKVDKKVEPKSCDKTHLGSGGSGSAGSGSGGSVKVKFVFSGEEKEVETSKIKWVLRWGKAVGFKYDDQGKIGYGFVAEKDAPKELLDLLARAEREKGSGGSGSAGSGSGGSVKVKFDATGEEKEVETSKISAVYRTGKDVLFSYDDQGKIGWGYVSEKDAPKELLDLLARAERE
light: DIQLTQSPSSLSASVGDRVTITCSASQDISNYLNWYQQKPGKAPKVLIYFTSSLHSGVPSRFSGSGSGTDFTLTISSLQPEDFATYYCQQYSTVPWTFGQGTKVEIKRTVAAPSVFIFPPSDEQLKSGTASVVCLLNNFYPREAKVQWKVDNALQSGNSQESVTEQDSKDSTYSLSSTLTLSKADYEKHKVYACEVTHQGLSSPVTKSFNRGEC
Take B6: in [1], the “IC50 (nM) Alternative Pathway” value was determined as 273 nM and the “IC50 (nM) Classical Pathway” value is 78 nM. In test [2], binding was characterised by a dissociation constant (Kd) of 90.6 nM. Also, the Kd in test [3] turned out to be 4.09 nM.

B7: Fab NF-H (Fab fusion protein comprising SEQ ID NO: 63 and SEQ ID NO: 62) (other)
heavy: EVQLVESGGGLVQPGGSLRLSCAASGYDFTHYGMNWVRQAPGKGLEWVGWINTYTGEPTYAADFKRRFTFSLDTSKSTAYLQMNSLRAEDTAVYYCAKYPYYYGTSHWYFDVWGQGTLVTVSSASTKGPSVFPLAPSSKSTSGGTAALGCLVKDYFPEPVTVSWNSGALTSGVHTFPAVLQSSGLYSLSSVVTVPSSSLGTQTYICNVNHKPSNTKVDKKVEPKSCDKTHLGSGGSGSAGSGSGGSVKVKFVFSGEEKEVETSKIKWVLRWGKAVGFKYDDQGKIGYGFVAEKDAPKELLDLLARAEREKGSGGSGSAGSGSGGSVKVKFDATGEEKEVETSKISAVYRTGKDVLFSYDDQGKIGWGYVSEKDAPKELLDLLARAERE
light: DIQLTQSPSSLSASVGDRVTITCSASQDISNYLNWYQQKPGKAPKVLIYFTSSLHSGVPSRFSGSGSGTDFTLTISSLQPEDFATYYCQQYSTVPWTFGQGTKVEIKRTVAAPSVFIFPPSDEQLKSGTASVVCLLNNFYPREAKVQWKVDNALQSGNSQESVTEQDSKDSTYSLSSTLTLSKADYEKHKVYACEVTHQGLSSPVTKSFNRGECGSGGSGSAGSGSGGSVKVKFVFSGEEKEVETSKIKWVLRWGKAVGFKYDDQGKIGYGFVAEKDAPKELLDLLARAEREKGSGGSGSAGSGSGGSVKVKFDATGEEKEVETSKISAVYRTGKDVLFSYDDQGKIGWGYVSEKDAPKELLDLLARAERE
As to B7, in test [1], the “IC50 (nM) Alternative Pathway” value turned out to be 123 nM and the “IC50 (nM) Classical Pathway” value worked out at 47 nM. In [2], the Kd stood at 0.1 nM. This molecule also had a Kd in test [3] of 0.13 nM.

B8: Fab NF-I (Fab fusion protein comprising SEQ ID NO: 36 and SEQ ID NO: 60) (other)
heavy: EVQLVESGGGLVQPGGSLRLSCAASGYDFTHYGMNWVRQAPGKGLEWVGWINTYTGEPTYAADFKRRFTFSLDTSKSTAYLQMNSLRAEDTAVYYCAKYPYYYGTSHWYFDVWGQGTLVTVSSASTKGPSVFPLAPSSKSTSGGTAALGCLVKDYFPEPVTVSWNSGALTSGVHTFPAVLQSSGLYSLSSVVTVPSSSLGTQTYICNVNHKPSNTKVDKKVEPKSCDKTHL
light: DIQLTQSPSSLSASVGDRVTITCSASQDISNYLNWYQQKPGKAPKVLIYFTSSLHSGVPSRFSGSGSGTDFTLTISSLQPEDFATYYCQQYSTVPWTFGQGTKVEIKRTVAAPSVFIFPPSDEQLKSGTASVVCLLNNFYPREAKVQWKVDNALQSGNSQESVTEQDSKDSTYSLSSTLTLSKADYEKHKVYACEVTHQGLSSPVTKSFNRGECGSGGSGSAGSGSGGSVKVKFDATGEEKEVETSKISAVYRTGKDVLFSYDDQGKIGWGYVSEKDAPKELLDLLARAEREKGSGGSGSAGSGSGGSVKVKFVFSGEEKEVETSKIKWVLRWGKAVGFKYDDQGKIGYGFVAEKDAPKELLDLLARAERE
As for B8, the “IC50 (nM) Alternative Pathway” value in [1] was determined as 170 nM. Moreover, the “IC50 (nM) Classical Pathway” value in test [1] was 63 nM. In addition, the Kd was 8.9 nM in [2] and 1.42 nM in test [3].

B9: polypeptide having the amino acid sequence of SEQ ID NO: 27 (designed binder)
chain: MVKVKFEATGEEKEVDTSKIYQVYRSGKEVLFTYDDNGKTGWGYVSEKDAPKELLDMLARAEREK
notes: Sac7d variant (Nanofitin); also called parental clone of cluster 6; Nanofitin
Regarding B9, in test [9], the Kd worked out at 2.1 nM. In addition, in test [5], the “IC50 (nM) Alternative (ELISA-based complement activation assay)” value amounted to 700 nM and the “IC50 (nM) Classical (ELISA-based complement activation assay)” value turned out to be 743 nM. Further, in test [6], the “-TΔS” value was 23.4 kcal/mol; the affinity, expressed as Kd, was 2.1 nM; the N is 0.98; the ΔG is -11.8 kcal/mol. The ΔH in [6] is -35.2 kcal/mol. The Ka in test [10] was 4.74e+08 M⁻¹. Also, the Kd in test [8] turned out to be 1.94 nM.

For the origin of these results see US20250145673A1 (AFFILOGIC, published 2025).
